The target in the assay is T1, recombinant HLA-A*2402 molecules lacking the transmembrane domain (human, biotinylated at the carboxy terminus of the heavy chain).
T1 construct: Loaded with the peptide in question; used on streptavidin beads (aAPC) and as PE- or APC-coupled multimers
Nature of the assay: peptide-loaded recombinant HLA-A*2402 on beads for T-cell priming, read out with A*2402 multimers.
Take VYIEKNDKL [ERBB3-001]: the binding result was “binds”.

In the case of AYAIIKEEL [ATAD2-001], the binding result is recorded as “binds”.

Consider IYNGKLFDLL [KIF2C-001], for which the binding result is on record as “binds”.

Turning to VFDTAIAHLF [SIAH2-001], the binding result is “binds”.

For VFIFKGNQF [MMP3-001], the binding result was “binds”.

In the case of LYQILQGIVF (also called TUMAP encoded by CDK1) [CDC2-001], the binding result is recorded as “binds”.

With NYLLYVSNF [MST1R-001], the binding result is given as “binds”.

As for FYISPVNKL [AVL9-001], the binding result is “binds”.

Turning to SYIDVLPEF [MET-006], the binding result was “binds”.

Take NYLPFIMEL [UCHL5-001]: the binding result is “binds”.

On to VYTTSYQQI [NFYB-001], for which the binding result is reported as “binds”.

For KYNDTFWKEF [HSP90B1-001], the binding result is recorded as “binds”.

Turning to RYLWATVTI [ASPM-001], the binding result is on record as “binds”.

With HYKPTPLYF [SMC4-001], the binding result is given as “binds”.

Take SYNPLWLRI [ASPM-002]: the binding result is on record as “binds”.

Regarding RFLSGIINF [NUF2-002], the binding result is “binds”.

Turning to VYGIRLEHF [NUF2-001], the binding result was “binds”.

AYLVYTDRL [PPAP2C-001]: the binding result is recorded as “binds”.

In the case of QYASRFVQL [PLK4-001], the binding result is “binds”.

On to NYEETFPHI [MUC6-001], for which the binding result is on record as “binds”.

Turning to VYKVVGNLL [IQGAP3-001], the binding result is recorded as “binds”.

For the molecule TYGNLLDYL [ABL1-001], the binding result is listed as “binds”.

For the molecule YYNAAGFNKL [UQCRB-001], the binding result was “binds”.

For the origin of these results see patent US20110257890A1 (IMMATICS BIOTECHNOLOGIES, published 2011).
